In one assay the target is T1, human GPC2 (human, UniProt Q8N158 24-554, limits assumed).
T1 sequence (looked up): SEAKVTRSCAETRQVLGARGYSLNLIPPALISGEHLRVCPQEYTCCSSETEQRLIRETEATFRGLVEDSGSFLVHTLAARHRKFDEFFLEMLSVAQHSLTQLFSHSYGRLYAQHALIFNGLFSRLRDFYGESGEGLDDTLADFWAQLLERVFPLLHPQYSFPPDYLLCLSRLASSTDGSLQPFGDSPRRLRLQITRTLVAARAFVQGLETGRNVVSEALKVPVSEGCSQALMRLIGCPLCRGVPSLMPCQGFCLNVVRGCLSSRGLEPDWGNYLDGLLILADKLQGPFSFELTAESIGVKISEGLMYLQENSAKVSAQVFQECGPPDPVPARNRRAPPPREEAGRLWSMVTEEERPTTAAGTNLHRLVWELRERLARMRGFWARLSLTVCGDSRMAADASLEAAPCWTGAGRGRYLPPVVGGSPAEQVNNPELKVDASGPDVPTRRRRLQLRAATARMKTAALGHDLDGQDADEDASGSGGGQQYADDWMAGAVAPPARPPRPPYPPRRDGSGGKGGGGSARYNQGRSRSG
The experiment in a line: ELISA. Background: ELISA stands for enzyme-linked immunosorbent assay.

In the next assay the target is T2, human GPC6 (human, UniProt Q9Y625 24-529, limits assumed).
T2 sequence (looked up): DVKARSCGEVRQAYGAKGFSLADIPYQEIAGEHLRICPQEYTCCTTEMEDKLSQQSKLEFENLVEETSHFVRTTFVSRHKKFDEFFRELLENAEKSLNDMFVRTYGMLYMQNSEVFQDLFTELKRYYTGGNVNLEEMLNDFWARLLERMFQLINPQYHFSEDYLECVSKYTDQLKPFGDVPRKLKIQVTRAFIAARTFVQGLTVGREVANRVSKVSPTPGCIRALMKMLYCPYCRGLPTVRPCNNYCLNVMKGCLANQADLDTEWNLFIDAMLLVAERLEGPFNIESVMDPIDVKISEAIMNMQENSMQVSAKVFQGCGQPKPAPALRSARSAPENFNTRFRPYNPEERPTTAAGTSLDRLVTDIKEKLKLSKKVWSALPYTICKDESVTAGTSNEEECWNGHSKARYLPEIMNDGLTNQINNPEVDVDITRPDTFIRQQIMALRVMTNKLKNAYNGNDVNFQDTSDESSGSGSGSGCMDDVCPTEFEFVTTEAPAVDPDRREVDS
The experiment in a line: ELISA.

Another assay concerns the target human GPC3 (human, UniProt P51654 25-559, limits assumed). The experiment in a line: ELISA.
Assay [1] has as its target T3, human GPC5 (printed as 'GPCS') (human, UniProt P78333 25-554, limits assumed).
T3 construct: The text prints 'GPCS'
T3 sequence (looked up): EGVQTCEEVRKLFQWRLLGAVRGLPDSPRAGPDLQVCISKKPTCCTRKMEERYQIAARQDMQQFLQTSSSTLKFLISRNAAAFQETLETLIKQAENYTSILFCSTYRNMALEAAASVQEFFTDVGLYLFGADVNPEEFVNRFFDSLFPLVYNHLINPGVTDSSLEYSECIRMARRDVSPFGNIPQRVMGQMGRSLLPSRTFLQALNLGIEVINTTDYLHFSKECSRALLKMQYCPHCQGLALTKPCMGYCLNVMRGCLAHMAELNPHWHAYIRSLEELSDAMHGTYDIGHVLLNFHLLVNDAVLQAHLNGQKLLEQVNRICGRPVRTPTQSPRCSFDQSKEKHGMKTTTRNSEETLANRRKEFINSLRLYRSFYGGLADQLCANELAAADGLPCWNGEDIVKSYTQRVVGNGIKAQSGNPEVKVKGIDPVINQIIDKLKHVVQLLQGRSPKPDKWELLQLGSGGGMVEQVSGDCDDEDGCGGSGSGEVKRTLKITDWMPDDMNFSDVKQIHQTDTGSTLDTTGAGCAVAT
The experiment in a line: ELISA.

The target of a further assay is T4, human glypican-1 (GPC1) (human, UniProt P35052 24-530).
T4 construct: also called human GPC1; HuGPC1
T4 sequence (looked up): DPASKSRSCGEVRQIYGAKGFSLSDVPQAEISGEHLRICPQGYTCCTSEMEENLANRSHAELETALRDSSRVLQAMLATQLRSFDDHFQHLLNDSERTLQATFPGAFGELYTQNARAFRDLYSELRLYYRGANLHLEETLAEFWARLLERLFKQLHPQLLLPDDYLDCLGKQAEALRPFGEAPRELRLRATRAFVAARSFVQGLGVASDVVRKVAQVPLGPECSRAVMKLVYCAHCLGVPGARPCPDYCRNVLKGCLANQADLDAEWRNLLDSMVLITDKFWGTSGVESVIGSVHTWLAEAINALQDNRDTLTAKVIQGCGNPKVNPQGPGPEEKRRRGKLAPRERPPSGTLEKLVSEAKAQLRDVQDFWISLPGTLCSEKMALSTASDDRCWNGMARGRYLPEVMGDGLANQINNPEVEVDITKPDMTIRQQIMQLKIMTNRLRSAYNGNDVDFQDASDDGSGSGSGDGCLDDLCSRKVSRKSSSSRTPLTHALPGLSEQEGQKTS
The experiment in a line: Octet kinetic analysis.

Data on one molecule can be found in patent publication US20220098323A1 (US Dept. of Health and Human Services, published 2022).

Sequence of human GPC3 (P51654 25-559 limits assumed): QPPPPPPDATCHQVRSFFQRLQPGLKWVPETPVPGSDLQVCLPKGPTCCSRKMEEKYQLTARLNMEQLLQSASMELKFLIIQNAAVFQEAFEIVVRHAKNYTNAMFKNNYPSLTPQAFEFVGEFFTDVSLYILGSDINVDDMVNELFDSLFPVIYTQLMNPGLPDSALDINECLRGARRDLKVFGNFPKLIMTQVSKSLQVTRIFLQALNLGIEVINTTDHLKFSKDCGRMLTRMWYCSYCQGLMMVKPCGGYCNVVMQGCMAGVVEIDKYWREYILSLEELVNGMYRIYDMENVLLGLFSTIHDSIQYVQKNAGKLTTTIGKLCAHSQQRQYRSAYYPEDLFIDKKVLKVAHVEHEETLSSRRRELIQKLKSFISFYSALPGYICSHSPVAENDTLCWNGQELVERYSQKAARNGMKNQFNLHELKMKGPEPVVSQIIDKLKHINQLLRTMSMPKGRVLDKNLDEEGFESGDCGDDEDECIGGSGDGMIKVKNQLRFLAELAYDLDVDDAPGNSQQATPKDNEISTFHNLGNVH

B1: mouse monoclonal antibody HM2 (antibody, V domains shown)
VH: EVQLQQSGAELVRPGASVKLSCTASGFNIKDDYMHWVKQRPEQGLEWIGWIDPENGDTEYASKFQGKATITADTSSNTAYLQLSSLTSEDTAVYYCTRSSVGYWGQGTTLTVSS
VL: DVVMTQTPLSLPVSLGDQASISCRSSQSLVHSNGNTYLHWYLQKPGQSPKLLIYKVSNRFSGVPDRFSGSGSGTYFTLKISRVEAEDLGVYFCSQRTHVPYTFGGGTKLEIK
notes: Mouse hybridoma antibody; also called HM2 antibody; HM2 anti-GPC1 monoclonal antibody
With B1, the binding result (with human GPC2; with human GPC6; with human GPC3; in assay [1]) was “no binding” each time. Further, in the assay with human glypican-1 (GPC1), the Kd (commonly the free concentration of one partner at which half of the binding sites on the other are occupied at equilibrium, for simple one-to-one binding) worked out at 1.2 nM.
